Here are results for 116 sequences from the supplement of paper PMC10724198.

± gives the standard deviation of the averaged measurements.
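Further: PSI is a weighted mean of sequencing reads over stability bins, variants kept only with over 10 reads, mCherry proximal and sfGFP distal, peptide attached via GGGS linker.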

The test system of the series is Saccharomyces cerevisiae. As to the kind of experiment: protein stability index of tFT-peptide fusion (C-terminal peptide) (PSI (0-1 scale)); higher = more stable (slower turnover). Particulars: genetic background: wild type; temperature: 30 C.
Consider LLHRALLFPAVM, for which the protein stability index stood at 0.734 ± 0.017. With LLIFFFSSSCPL the figure was 0.5359 ± 0.0025; with LLIYALPQGTHL, 0.68 ± 0.048; with LLKLSVPPSLYV, 0.5722 ± 0.0011. With LLLARDLAHPLI the figure was 0.705 ± 0.015. Under LLLFSILPFCLF stands 0.53 ± 0.073. Sequence LLLLPPPPPPPT came in with a protein stability index of 0.684 ± 0.046. Under LLLTVMSSPSLL stands 0.645 ± 0.027. Under LLNCVCSYFAWC stands 0.637 ± 0.014. Under LLNNTLENQNTL stands 0.6645 ± 0.0041; under LLNTSPPRSVLH, 0.653 ± 0.01; under LLPFHPPPPCPP, 0.733 ± 0.033. LLPFIPPPPCPP registered a protein stability index of 0.658 ± 0.02. Under LLPLGSLSLSPP stands 0.7257 ± 0.0024; under LLPLPSFSPCSL, 0.7013 ± 0.0034; under LLPLVLHQAFSP, 0.729 ± 0.073. Under LLPPPPPASPAI stands 0.696 ± 0.01; under LLPPSPSSRPLF, 0.723 ± 0.02; under LLPPTSRLPRLG, 0.702 ± 0.12. LLPSPLPPLLRL yielded a protein stability index of 0.6494 ± 0.0018. The sequence LLQFYWRPCRGY returned a protein stability index of 0.699 ± 0.013. With LLQSPRLGQEWA the figure was 0.6928 ± 0.0028.

LLSCFGFLRVGA came in with a protein stability index of 0.6076 ± 0.0049.

With LLSHLPLPSSPP, the protein stability index is 0.737 ± 0.096. Under LLSPAPRSPRRP stands 0.725 ± 0.019; under LLSPPFPPPAMV, 0.6948 ± 0.0017.

As to LLSPPPAPRPPH, the protein stability index worked out at 0.696 ± 0.067. LLSSSLPVCLWS had a protein stability index of 0.733 ± 0.048. With LLSVPSLFCQFF the figure was 0.683 ± 0.057.

For the sequence LLTAFQACPASN, the protein stability index turned out to be 0.713 ± 0.04. Sequence LLVCVVDREPPI yielded a protein stability index of 0.685 ± 0.019. Under LMGFVASGGDDM stands 0.786 ± 0.1; under LNDYGLADLGII, 0.731 ± 0.0076; under LNEGSDRTKNKK, 0.709 ± 0.065. With LNHTRKDSLLTC the figure was 0.667 ± 0.014; with LNPPPPPDPPPT, 0.585 ± 0.048; with LNSSGPGYGFPG, 0.743 ± 0.05. Regarding LNWMVMLGHGAC, the protein stability index worked out at 0.5729 ± 0.0014. LPAFHFHSPPTP came in with a protein stability index of 0.688 ± 0.037. With LPAPARPPLVCS the figure was 0.605 ± 0.048; with LPAPPTPRPAPP, 0.706 ± 0.016; with LPFPSCYLRASL, 0.779 ± 0.033. As for LPFSPLSLLAHP, the protein stability index is 0.782 ± 0.044. With LPGCPPADRPLV the figure was 0.688 ± 0.13; with LPHLSPPPLAQL, 0.686 ± 0.033; with LPHSPHRAAYPN, 0.8 ± 0.013. In turn, LPHYLAFPFFMI had a protein stability index of 0.499 ± 0.08. In the case of LPIARLPPPPPR, the protein stability index turned out to be 0.707 ± 0.1. Under LPITTPLPPLDP stands 0.688 ± 0.02.

In the case of LPLALLSPPFGS, the protein stability index is 0.707 ± 0.022. With LPLHAPPPHRHP the figure was 0.683 ± 0.013. In turn, LPLPHPQPTPYP had a protein stability index of 0.756 ± 0.046. LPLPPLPPPSCP had a protein stability index of 0.718 ± 0.032. With LPLSRPPLPPPL, the protein stability index came out at 0.786 ± 0.031. With LPNLGWTNSSIE, the protein stability index turned out to be 0.667 ± 0.066. For the sequence LPNPTSPSPQAA, the protein stability index worked out at 0.693 ± 0.025.

The sequence LPPALAPLPPPL registered a protein stability index of 0.572 ± 0.021. LPPCGQIVSLDT returned a protein stability index of 0.68 ± 0.022. With LPPLAPSSPPRP the figure was 0.696 ± 0.033; with LPPLLGPSPCPP, 0.604 ± 0.015.

In turn, LPPLLLPTRPLS returned a protein stability index of 0.662 ± 0.12. Under LPPLPPLAHHPA stands 0.699 ± 0.044; under LPPPLPLPSRHY, 0.671 ± 0.06. In turn, LPPPLSSPSSLR came in with a protein stability index of 0.7153 ± 0.0071. With LPPPPLSPPSLV the figure was 0.734 ± 0.0078; with LPPPPPAFLDSF, 0.691 ± 0.065. On to LPPPPPPLPHPP, for which the protein stability index turned out to be 0.597 ± 0.083. In turn, LPPPPRPALSHR returned a protein stability index of 0.72 ± 0.089. Consider LPPPRSPPLPRL, for which the protein stability index amounted to 0.802 ± 0.059. With LPPPSPPPIPSP the figure was 0.688 ± 0.06; with LPPPVFPLRLSL, 0.703 ± 0.027. With LPPRPGFLSSLP, the protein stability index worked out at 0.64 ± 0.082. LPPRSPSPHPHR showed a protein stability index of 0.68 ± 0.0078. Under LPPSPLPPLPPP stands 0.6942 ± 0.0012; under LPPSRSPPPFPL, 0.728 ± 0.048. LPPSSCPPPPTP: the protein stability index amounted to 0.702 ± 0.068. Under LPPSSFPTPSPP stands 0.723 ± 0.08. With LPPSTYPASTPS the figure was 0.674 ± 0.054; with LPPVPRAYFSDT, 0.714 ± 0.061. In the case of LPRHKWLPSGLG, the protein stability index is 0.686 ± 0.056. Sequence LPRPPPPSPPPP returned a protein stability index of 0.7 ± 0.042. Under LPRTALHSPSPY stands 0.723 ± 0.082. Under LPRTPPPLAHGP stands 0.688 ± 0.041.

Turning to LPSGLTSPPRSS, the protein stability index came to 0.712 ± 0.031. On to LPSHPHDRPPQT, for which the protein stability index amounted to 0.719 ± 0.019. The sequence LPSLDSVCLLFP had a protein stability index of 0.685 ± 0.026. With LPSLLIHLVSQT the figure was 0.668 ± 0.02; with LPSPALSRSDPT, 0.729 ± 0.031.

The sequence LPSPPRHPSAPR had a protein stability index of 0.683 ± 0.022. Under LPSPRIPLTSQS stands 0.638 ± 0.031; under LPSPSYPAPVPN, 0.65 ± 0.074; under LPTPSLPPLPFH, 0.623 ± 0.058.

Take LPTSPQLPHAPS: the protein stability index amounted to 0.7192 ± 0.0046. Under LPTSSTRVEFSV stands 0.638 ± 0.045. Sequence LPVPLYPTPALL returned a protein stability index of 0.666 ± 0.14. Under LPVPPPPPLPET stands 0.702 ± 0.061; under LPYAMPGFHSTR, 0.701 ± 0.037. Under LQASRHPASPST stands 0.701 ± 0.048; under LQCCVAVTNYCV, 0.54 ± 0.016; under LQCRAEFQRARC, 0.666 ± 0.031.

For LQFAQLLDISIT, the protein stability index is 0.696 ± 0.062. With LQKNKIPTKKKD the figure was 0.647 ± 0.0097; with LRARLTGRFIVG, 0.669 ± 0.013. The sequence LRAWAAPPPHGL had a protein stability index of 0.727 ± 0.076. Turning to LRCFLESPRQST, the protein stability index worked out at 0.724 ± 0.071. With LRESPPHLPFPP, the protein stability index was determined as 0.701 ± 0.039. In turn, LRFGEGILLDWG returned a protein stability index of 0.723 ± 0.043. In turn, LRFRCGNSRILS showed a protein stability index of 0.724 ± 0.044.

LRGAWRISIEGG returned a protein stability index of 0.666 ± 0.036. With LRGEGAGPEDVG the figure was 0.67 ± 0.029; with LRGTEMMSTSVV, 0.656 ± 0.085; with LRGVDSALCGAR, 0.693 ± 0.082. LRHLPRDVPSYI: the protein stability index was 0.7049 ± 0.0046. With LRLSASRLLPPP the figure was 0.736 ± 0.015. Under LRLSSYRAPRPR stands 0.649 ± 0.032; under LRPCSSLPSTPP, 0.718 ± 0.049.
